The values below come from US20180021429A1, “ANTICANCER AGENTS OR ANTIMETASTATIC AGENTS USING FSTL1 AND COMBINATION DRUG THEREOF” (PHARMA FOODS INTERNATIONAL CO., LTD., priority 2015, published 2018).

In one assay the test system is mouse bone marrow cells. The assay is described as follows: Inhibition of induction of mesenchymal stem cells (MSC) by FSTL1 in mouse bone marrow cells (Examples 4, 6, 8, 12). The note with it: 8 days. The class given is cell-based. On the procedure:
It is known that when bone marrow cells are stimulated with FSTL1, mesenchymal stem cells (MSCs) having pluripotency or self-proliferative capacity grow (Cancer Research 73: 6185, 2013). Thus, 2×10^7 cells/well of bone marrow cells collected from the thigh bone of a C57BL/6 mouse were suspended in 3 mL/well of RPMI1640 (GIBCO/Thermo Fisher Scientific Inc., Cat. No. C11875500BT) medium containing 2% fetal bovine serum, supplemented with 50 ng/mL (final concentration) of FSTL1 (R&D Systems, Inc. Cat#1694-FN-050) and 10 μg/mL of the anti-FSTL1 antibody (#5-2, […], #5-8, #5-10, #5-43, #6-55, or #7-34) or its isotype mouse IgG (anti-DNP antibody) as a control antibody “Control”, and cultured under stimulation (6-well plate). 11 days thereafter, the number of cells was counted while the cells were stained with a PE-labeled anti-ALCAM antibody (eBioscience, Cat. No. 12-1661-82) and a PE-labeled anti-PDGFRA antibody (eBioscience, Cat#12-1401-81) in order to examine the expression of MSC markers, and the contents of ALCAM-positive cells and PDGFR-positive cells were analyzed by flow cytometry using FACScan (Becton, Dickinson and Company, Code. BECTON-DICKINSON-FACSCAN) to calculate the number of each positive cell per culture.
(§1) Mouse bone marrow cells prepared in the same way as in Example 4 were supplemented with 50 ng/mL (final concentration) of FSTL1 and 10 μg/mL of the anti-FSTL1 antibody (#5-2, #5-3, #5-8, #5-10, #5-43, #6-55, or #7-34) or a control antibody anti-DNP antibody and cultured under stimulation. 11 days thereafter, the number of cells was counted while the cells were stained with a PE-Cy5-labeled anti-CD45 antibody (BD Pharmingen/Becton, Dickinson and Company, Cat. No. 555484), and the content of CD45− negative cells reported to generally contain MSCs at a high rate was analyzed by flow cytometry using FACScan to calculate the percentage and number of MSCs per culture (FIG. 99A).
Mouse bone marrow cells prepared in the same way as in Example 4 were supplemented with 20 ng/mL (final concentration) of FSTL1 and 10 μg/mL of the anti-FSTL1 antibody (#5-2, #5-3, #5-8, #5-10, #5-43, #6-55, #8-1, #8-4, #8-7, and #8-8) or a control antibody anti-DNP antibody and cultured under stimulation. 8 days thereafter, the number of cells was counted while the cells were stained with a PE-Cy5-labeled anti-CD45 antibody, and the content of CD45− negative cells was analyzed by flow cytometry using FACScan to calculate the percentage and number of MSCs per culture (FIG. 100A).
Mouse bone marrow cells prepared in the same way as in Example 4 were supplemented with 20 ng/mL (final concentration) of FSTL1 and 10 μg/mL of the anti-FSTL1 antibody (#5-2, #5-8, #6-55, […], #8-1, #8-4, #8-7, or #8-8) or a control antibody anti-DNP antibody and cultured under stimulation. 8 days thereafter, the number of cells was counted while the cells were stained with a PE-Cy5-labeled anti-CD45 antibody, and the content of CD45− negative cells was analyzed by flow cytometry using FACScan to calculate the percentage and number of MSCs per culture (FIG. 101).

The next assay concerns the target T1, FSTL1 (Homo sapiens, UniProt Q12841).
T1 sequence (Q12841 21-308): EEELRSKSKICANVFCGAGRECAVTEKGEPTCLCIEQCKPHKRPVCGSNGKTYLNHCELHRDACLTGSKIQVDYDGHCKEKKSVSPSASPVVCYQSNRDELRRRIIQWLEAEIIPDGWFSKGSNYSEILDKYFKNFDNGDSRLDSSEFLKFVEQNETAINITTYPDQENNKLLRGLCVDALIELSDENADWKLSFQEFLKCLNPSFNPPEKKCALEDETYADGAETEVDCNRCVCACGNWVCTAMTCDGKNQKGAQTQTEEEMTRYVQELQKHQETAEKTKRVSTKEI
The experiment in a line: Inhibition of MSC induction by FSTL1 in mouse bone marrow cells, CD45-negative cells (Examples 6, 8, 12). Details: purchased R&D Systems, Inc. 1694-FN-050. In kind it is cell-based. Particulars: antibody 10 μg/mL. As to the method: as §1, with “45-43,” for “#5-43,”, “67A).” for “99A).”
Mouse bone marrow cells prepared in the same way as in Example 4 were supplemented with 20 ng/mL (final concentration) of FSTL1 and 10 μg/mL of the anti-FSTL1 antibody (#5-2, #5-3, #5-8, #5-10, #5-43, #6-55, #8-1, #8-4, #8-7, and #8-8) or a control antibody anti-DNP antibody and cultured under stimulation. 8 days thereafter, the number of cells was counted while the cells were stained with a PE-Cy5-labeled anti-CD45 antibody, and the content of CD45− negative cells was analyzed by flow cytometry using FACScan to calculate the percentage and number of MSCs per culture (FIG. 68A).
Mouse bone marrow cells prepared in the same way as in Example 4 were supplemented with 20 ng/mL (final concentration) of FSTL1 and 10 μg/mL of the anti-FSTL1 antibody (#5-2, #5-8, #6-55, #7-34, #8-1, #8-4, #8-7, or #8-8) or a control antibody anti-DNP antibody and cultured under stimulation. 8 days thereafter, the number of cells was counted while the cells were stained with a PE-Cy5-labeled anti-CD45 antibody, and the content of CD45− negative cells was analyzed by flow cytometry using FACScan to calculate the percentage and number of MSCs per culture (FIG. 69).

Setting [1] is: Example 8: 20 ng/mL FSTL1, 10 μg/mL antibody, FIG. 100A.
Setting [2] is: Example 8, FSTL1 20 ng/mL, 8 days.
[3] abbreviates: Example 12: 20 ng/mL FSTL1, 10 μg/mL antibody, FIG. 101.
Setting [4] is: Example 12, FSTL1 20 ng/mL, 8 days.

Where a chain is given by its changes, count along the chain named. “Also recorded” adds a separate entry of the source.

B1: #5-8: chicken-mouse chimeric anti-FSTL1 antibody clone; variable regions SEQ ID NO: 771 (light), 773 (heavy) (antibody, V domains shown)
VH: AVTLDESGGGLQTPGGGLSLVCKGSGFTFSSFNMFWVRQAPGKGLEWVAGIGKDGVPKYGTAVDGRATISKDNGQSTMRLQLNNLRAEDTGTYFCAKAAGGCSYDWCGIYTGDIDTWGHGTEVIVSS
VL: ASTQPSSVSANPGEAVKITCSGGSGSYYGWYQQKSPGSAPVTVIYNNNQRPSDIPSRFSGSKSGSTATLTITGVQAEDEAVYFCGGYDSSTGHGGIFGAGTTLTVL
modifications: mouse constant regions
Turning to B1, the “inhibitory activity against the expansion of CD45-negative cells by FSTL1” value (“inhibitory activity” below) with mouse bone marrow cells (setting [1]) is “exhibited inhibitory activity”; in the assay with FSTL1 (Example 6, FSTL1 50 ng/mL, 11 days), “higher inhibitory activity and substantially completely inhibited the action of FSTL1”; in the assay with FSTL1 (setting [2]) it was “Inhibitory activity was confirmed; also recorded: exhibited inhibitory activity”.

B2: #5-2: chicken-mouse chimeric anti-FSTL1 antibody clone; variable regions SEQ ID NO: 763 (light), 765 (heavy) (antibody, V domains shown)
VH: AVTLDESGGGLQTPGGGLSLVCKGSGFTFSSFNMFWVRQAPGKGLEWVAGVGKDGGTGYGAAVDGRATISKDNGQSTLRLQLNNLRAEDTGTYYCAKAAGGCSYGWCGSYVGDIDAWGHGTEVIVSS
VL: B1 VL
modifications: mouse constant regions
Consider B2, for which the “inhibitory activity” value with mouse bone marrow cells (setting [3]) is “higher inhibitory activity was confirmed in the order of #7-34, #5-2, #6-55, and #8-7”; with FSTL1 (setting [4]), “stronger inhibitory activity was confirmed in the order of clone #7-34, #5-2, 46-55, and #8-7; also recorded: higher inhibitory activity was confirmed in the order of #7-34, #5-2, #6-55, and #8-7; also recorded: stronger inhibitory activity was confirmed in the order of clone #7-34, #5-2, 96-55, and #8-7”.

B3: #8-7: chicken-mouse chimeric anti-FSTL1 antibody clone; variable regions SEQ ID NO: 799 (light), 801 (heavy) (antibody, V domains shown)
VH: B1 VH with T61A, M78L, T111A
VL: B1 VL
modifications: mouse constant regions
For the molecule B3, the “inhibitory activity” value is “higher inhibitory activity was confirmed in the order of #7-34, #5-2, #6-55, and #8-7” in the assay with mouse bone marrow cells (setting [3]); “stronger inhibitory activity was confirmed in the order of clone #7-34, #5-2, 46-55, and #8-7; also recorded: higher inhibitory activity was confirmed in the order of #7-34, #5-2, #6-55, and #8-7; also recorded: stronger inhibitory activity was confirmed in the order of clone #7-34, #5-2, 96-55, and #8-7” in the assay with FSTL1 (setting [4]).

B4: #8-1: chicken-mouse chimeric anti-FSTL1 antibody clone; variable regions SEQ ID NO: 791 (light), 793 (heavy) (antibody, V domains shown)
VH: B1 VH with G17A, T61A, T111A
VL: B1 VL with T91S
modifications: mouse constant regions
Consider B4, for which the results for the “inhibitory activity” value in the assay on mouse bone marrow cells (setting [1]) and with FSTL1 (setting [2]) were “exhibited inhibitory activity” and “Inhibitory activity was confirmed; also recorded: exhibited inhibitory activity”, respectively.

B5: #8-4: chicken-mouse chimeric anti-FSTL1 antibody clone; variable regions SEQ ID NO: 795 (light), 797 (heavy) (antibody, V domains shown)
VH: B2 VH with F29L, G58A, K71R, N73S, L78V, Y94F, G105S, S109A, I114L
VL: ASSQPSSVSANPGETVKITCSGGSGYYYGWYQQKSPGSAPVTVIYNNDNKPSDIPSRFSGSKSGSTGTLTITGVQVEDEAVYFCGGYDNSGTGIFGAGTTLTVL
modifications: mouse constant regions
For the molecule B5, the “inhibitory activity” value with mouse bone marrow cells (setting [1]) and with FSTL1 (setting [2]) was “exhibited inhibitory activity” in each case.
